Experimental data reported in patent publication US20230408517A1 (BIO TECHNE, published 2023).
Where two headings read alike, the source gives them in different places.

How the values were obtained:
[1] = target: T1, recombinant SARS-CoV-2 spike S1 RBD (R319-F541), C-terminal 6-His (SARS-CoV-2, UniProt P0DTC2 319-541); test: sandwich dipstick, detector Ab5-AuNP
[2] = target: T2, UK variant RBD (R319-F541 with N501Y), C-terminal 6-His (SARS-CoV-2, UniProt P0DTC2 319-541); test: sandwich dipstick, detector Ab5-AuNP
[3] = target: T3, SA variant RBD (R319-F541 with K417N, E484K, N501Y), C-terminal 6-His (SARS-CoV-2, UniProt P0DTC2 319-541); test: sandwich dipstick, detector Ab5-AuNP
[4] = target: T4, BR P.1 variant RBD (R319-F541 with K417T, E484K, N501Y), C-terminal 6-His (SARS-CoV-2, UniProt P0DTC2 319-541); test: sandwich dipstick, detector Ab5-AuNP
[5] = target: T3, SA variant RBD (R319-F541 with K417N, …); test: lateral flow NC50, RBD-AuNP vs immobilised ACE2
[6] = target: T4, BR P.1 variant RBD (R319-F541 with …); test: lateral flow NC50, RBD-AuNP vs immobilised ACE2
[7] = target: T1, recombinant SARS-CoV-2 spike S1 RBD …; test: sandwich dipstick, capture Ab7, detector Ab4-AuNP
[8] = target: T2, UK variant RBD (R319-F541 with N501Y), …; test: sandwich dipstick, capture Ab7, detector Ab4-AuNP
[9] = target: T3, SA variant RBD (R319-F541 with K417N, …); test: sandwich dipstick, capture Ab7, detector Ab4-AuNP
[10] = target: T4, BR P.1 variant RBD (R319-F541 with …); test: sandwich dipstick, capture Ab7, detector Ab4-AuNP
[11] = target: T1, recombinant SARS-CoV-2 spike S1 RBD …; test: lateral flow NC50, RBD-AuNP vs immobilised ACE2
[12] = target: T2, UK variant RBD (R319-F541 with N501Y), …; test: lateral flow NC50, RBD-AuNP vs immobilised ACE2
[13] = target: T1, recombinant SARS-CoV-2 spike S1 RBD …; test: lateral flow NC50, RBD-AuNP vs immobilised ACE2; remark: listed apart in the source
[14] = target: T2, UK variant RBD (R319-F541 with N501Y), …; test: lateral flow NC50, RBD-AuNP vs immobilised ACE2; remark: listed apart in the source
[15] = target: K417E RBD (R319-F541 with K417E) (SARS-CoV-2, UniProt P0DTC2 319-541); test: lateral flow NC50, RBD-AuNP vs immobilised ACE2
[16] = target: T478K RBD (R319-F541 with T478K) (SARS-CoV-2, UniProt P0DTC2 319-541); test: lateral flow NC50, RBD-AuNP vs immobilised ACE2
[17] = target: T1, recombinant SARS-CoV-2 spike S1 RBD …; test: flow cytometry, blocking of binding to hACE-2 cells
[18] = target: T1, recombinant SARS-CoV-2 spike S1 RBD …; test: as above; remark: listed apart in the source
[19] = target: T4, BR P.1 variant RBD (R319-F541 with …); test: as above
[20] = target: T5, IN v2 variant RBD (R319-F541 with L452R, T478K) (SARS-CoV-2, UniProt P0DTC2 319-541); test: as above
[21] = target: rSARS2 RBD aa319-541, N439K, C-His (SARS-CoV-2, UniProt P0DTC2 319-541); test: as above
[22] = target: rSARS2-B.1.1.7 S aa16-1211 2x aa mut., C-His (SARS-CoV-2, UniProt P0DTC2 16-1211); test: as above
[23] = target: rSARS2-B.1.1.7 S aa16-1211 4x aa mut., C-His (SARS-CoV-2, UniProt P0DTC2 16-1211); test: as above
[24] = target: rSARS2-B.1.617.2 S aa16-1211 10+4x aa mut., C-His (SARS-CoV-2, UniProt P0DTC2 16-1211); test: as above
[25] = target: BR P.2 variant RBD (R319-F541 with E484K) (SARS-CoV-2, UniProt P0DTC2 319-541); test: dipstick, adsorbed RBD spots, Ab 10 µg/mL, GAM-AuNP
[26] = target: L452R RBD (R319-F541 with L452R) (SARS-CoV-2, UniProt P0DTC2 319-541); test: as above
[27] = target: IN v1 variant RBD (R319-F541 with L452R, E484Q) (SARS-CoV-2, UniProt P0DTC2 319-541); test: as above
[28] = target: T5, IN v2 variant RBD (R319-F541 with …); test: as above

B1: 1035240 (antibody, V domains shown)
VH: QVQLQQSGAELARPGASVKMSCKASGYTFTTYTMHWVKQRPGQGLEWIGYINPSSGYTNYNQKFKDKATLTADTSSSTAYMQLSSLTSEDSAVYYCARRNPLYAMDYWGQGTSVTVSS
VL: DIKMTQSPSSMYASLGERVTITCKASQDINSYLNWFQQKPGKSPKTLIYRANRLVDGVPSRFSGSGSGQDYSLTISSLEYEDMGIYYCLQYDEFPYTFGGGTKLEIK
[1]
  detection sensitivity: 0.001 µg/mL
[2]
  detection sensitivity: 0.001 µg/mL
[3]
  detection sensitivity: 0.001 µg/mL
[4]
  detection sensitivity: 0.001 µg/mL
[5]
  IC50: > 45 µg/mL
[6]
  IC50: > 45 µg/mL
[7]
  detection sensitivity: 0.01 µg/mL
[8]
  detection sensitivity: 0.01 µg/mL
[9]
  detection sensitivity: 0.1 µg/mL
[10]
  detection sensitivity: 0.1 µg/mL
[11]
  IC50: 0.34 µg/mL
[12]
  IC50: 0.86 µg/mL
[13]
  IC50: 0.34 µg/mL
[14]
  IC50: 0.86 µg/mL
[15]
  IC50: 0.33 µg/mL
[16]
  IC50: 0.61 µg/mL
[17]
  percent blocking: 99.1%
[18]
  percent blocking: 99.1%
[19]
  percent blocking: 0%
[20]
  percent blocking: 0.7%
[21]
  percent blocking: 49%
[22]
  percent blocking: 91.2%
[23]
  percent blocking: 78.6%
[24]
  percent blocking: 0%
[25]
  binding result: no binding (tested: 10 µg/mL)
[26]
  binding result: no binding (tested: 10 µg/mL)
[27]
  binding result: no binding (tested: 10 µg/mL)
[28]
  binding result: no binding (tested: 10 µg/mL)
